Where “and” joins values, the source holds several entries; their conditions need not be identical. Identical values can stand only once.
Target: SARS-CoV-2 S trimer (SARS-CoV-2, UniProt P0DTC2)
Assay: SPR

B1: P17 (antibody, V domains shown)
VH: QQLVESGGGVVQPGRSLRLSCAASGFTFSSYAMHWVRQAPGKGLEWVAVISYDGSNKYYADSVKGRFTISRDNSKNTLYLQMNSLRAEDTAVYYCARHATLMNNKDIWGQGTLVTVSS
VL: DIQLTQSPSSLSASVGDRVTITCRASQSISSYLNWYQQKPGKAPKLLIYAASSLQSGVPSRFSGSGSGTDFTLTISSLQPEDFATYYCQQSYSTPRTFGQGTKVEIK
Kd: 0.14 nM and 0.08 nM and 0.06 nM
